Like-named read-outs stand apart in the source and are kept apart here.
Columns and labels:
[1] = system: T1, Ac-LEHD-Afc
T1 sequence: LEHD

[2] = system: T2, Ac-VEID-Afc
T2 sequence: VEID

[3] = system: T3, Ac-WEHD-Afc
T3 sequence: WEHD

[4] = system: T4, Ac-DEVD-Afc
T4 sequence: DEVD

[5] = system: T5, Ac-IETD-Afc
T5 sequence: IETD

[6] = target: T6, Ac-LEHD-Afc
T6 chain: LEHD

Caspase 1
Optimum substrate at pH 7.2 (rate of AFC release, fluorogenic cleavage assay) [1]: Ac-LEHD-Afc (SEQ ID NO:5), | Optimum substrate at pH 7.2 (rate of AFC release, fluorogenic cleavage assay) [2]: Ac-VEID-Afc (SEQ ID NO:6) | Optimum substrate at pH 7.2 (rate of AFC release, fluorogenic cleavage assay) [3]: Ac-WEHD-Afc (SEQ ID NO:4),

Caspase 2
Optimum substrate at pH 7.2 (rate of AFC release, fluorogenic cleavage assay) [1]: Ac-LEHD-Afc (SEQ ID NO:5)

Caspase 3
Optimum substrate at pH 7.2 (rate of AFC release, fluorogenic cleavage assay) [4]: Ac-DEVD-Afc (SEQ ID NO:1)

Caspase 6
Optimum substrate at pH 7.2 (rate of AFC release, fluorogenic cleavage assay) [5]: Ac-IETD-Afc (SEQ ID NO:2)

Caspase 7
Optimum substrate at pH 7.2 (rate of AFC release, fluorogenic cleavage assay) [4]: Ac-DEVD-Afc (SEQ ID NO:1)

Caspase 8
Optimum substrate at pH 7.2 (rate of AFC release, fluorogenic cleavage assay) [1]: Ac-LEHD-Afc (SEQ ID NO:5

Caspase 10
Optimum substrate at pH 7.2 (rate of AFC release, fluorogenic cleavage assay) [1]: Ac-LEHD-Afc (SEQ ID NO:5) | Optimum substrate at pH 7.2 (rate of AFC release, fluorogenic cleavage assay) [5]: Ac-IETD-Afc (SEQ ID NO:2),

B1: Caspase 9 (protein)
chain: MDEADRRLLRRCRLRLVEELQVDQLWDALLSRELFRPHMIEDIQRAGSGSRRDQARQLIIDLETRGSQALPLFISCLEDTGQDMLASFLRTNRQAAKLSKPTLENLTPVVLRPEIRKPEVLRPETPRPVDIGSGGFGDVGALESLRGNADLAYILSMEPCGHCLIINNVNFCRESGLRTRTGSNIDCEKLRRRFSSLHFMVEVKGDLTAKKMVLALLELAQQDHGALDCCVVVILSHGCQASHLQFPGAVYGTDGCPVSVEKIVNIFNGTSCPSLGGKPKLFFIQACGGEQKDHGFEVASTSPEDESPGSNPEPDATPFQEGLRTFDQLDAISSLPTPSDIFVSYSTFPGFVSWRDPKSGSWYVETLDDIFEQWAHSEDLQSLLLRVANAVSVKGIYKQMPGCFNFLRKKLFFKTS
Optimum substrate at pH 7.2 (rate of AFC release, fluorogenic cleavage assay) [6]: Ac-LEHD-Afc (SEQ ID NO:5
